Biological target: Bovine Serum Albumin (BSA) (bovine, UniProt P02769 25-607)
Assay: ELISA, BSA coated on the plate, rsCD6 added at several concentrations, detected with biotin-labeled anti-CD6 mAb (MAE) and streptavidin-HRP
Description: Twelve μg of LPS purified from E. coli O111:B4 (Sigma), Zymosan from Saccharomyces cerevisae (Sigma), peptidoglycan purified from S. aureus (Fluka) or Bovine Serum Albumin (BSA), were used to coat 96-well microtiter plates (Nunc, Roskilde, Denmark) in PBS, overnight at 4° C. Non-specific binding to the wells was prevented by the addition of PBS containing 1% BSA for 1 h at room temperature. Several concentrations of rsCD6 were then added to the wells and incubated for 3 h at room temperature. Bound protein was detected by the addition of a 1:200 dilution of biotin-labeled mAb anti-CD6 (MAE) for 1 h at RT, followed by a 1:1000 dilution of HRP-labeled streptavidin (DAKO, Glostrup, Denmark), which was incubated for 30 min at RT. Between each incubation step, unbound protein or HRP-streptavidin was washed off three times with PBS plus 0.01% Tween-20. Color was developed by adding 3,3′,5,5′-tetramethylbenzidine liquid substrate (Sigma), and the absorbance was read at 405 nm. The assay was repeated three times with similar results.

Bovine Serum Albumin (BSA), sequence (P02769 25-607 limits assumed): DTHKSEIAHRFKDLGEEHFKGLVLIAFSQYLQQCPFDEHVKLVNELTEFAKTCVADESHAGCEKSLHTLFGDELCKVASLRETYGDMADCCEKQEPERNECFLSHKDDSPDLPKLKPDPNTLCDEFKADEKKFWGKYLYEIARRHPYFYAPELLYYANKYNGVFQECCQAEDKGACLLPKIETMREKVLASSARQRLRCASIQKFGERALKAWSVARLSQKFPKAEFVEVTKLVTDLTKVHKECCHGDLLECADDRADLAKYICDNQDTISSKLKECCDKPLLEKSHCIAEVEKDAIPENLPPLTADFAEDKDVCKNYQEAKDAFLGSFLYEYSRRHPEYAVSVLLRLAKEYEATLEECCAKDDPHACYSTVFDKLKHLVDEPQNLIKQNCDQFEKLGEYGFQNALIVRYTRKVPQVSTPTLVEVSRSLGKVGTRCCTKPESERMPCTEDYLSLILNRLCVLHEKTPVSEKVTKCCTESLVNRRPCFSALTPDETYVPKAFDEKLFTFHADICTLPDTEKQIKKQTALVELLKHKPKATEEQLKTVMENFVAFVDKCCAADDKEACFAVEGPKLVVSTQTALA

B1: rsCD6, recombinant soluble ectodomain of human CD6 (amino acids D25 to E384, immature protein numbering) (receptor, UniProt P30203 25-384, looked up)
chain: DQLNTSSAESELWEPGERLPVRLTNGSSSCSGTVEVRLEASWEPACGALWDSRAAEAVCRALGCGGAEAASQLAPPTPELPPPPAAGNTSVAANATLAGAPALLCSGAEWRLCEVVEHACRSDGRRARVTCAENRALRLVDGGGACAGRVEMLEHGEWGSVCDDTWDLEDAHVVCRQLGCGWAVQALPGLHFTPGRGPIHRDQVNCSGAEAYLWDCPGLPGQHYCGHKEDAGAVCSEHQSWRLTGGADRCEGQVEVHFRGVWNTVCDSEWYPSEAKVLCQSLGCGTAVERPKGLPHSLSGRMYYSCNGEELTLSNCSWRFNNSNLCSQSLAARVLCSASRSLHNLSTPEVPASVQTVTIE
notes: range 25-384; Used as unpurified serum-free culture supernatant to coat wells in the gp120 ELISA; also called recombinant soluble CD6; rCD6
  binding result: no binding

From US20100105622A1 (UNIVERSIDAD DE BARCELONA, published 2010)
